Reference: patent publication EP4775226A1, “ANTIBODY DRUG CONJUGATE TARGETING GPC3 AND USE THEREOF” (priority 2023, dated 2025)

Experiments:
[1] = target: T1, human GPC3 (Glypican-3) (human, UniProt P51654 25-580); experiment: FACS on GPC3-CHO-K1 cells (CHO-K1 overexpressing human GPC3)
T1 construct: whole, on cells; The cell line of each value is named under assay

[2] = target: T1, human GPC3 (Glypican-3); experiment: FACS on Huh7 liver cancer cells
[3] = target: T1, human GPC3 (Glypican-3); experiment: cell-based or functional assay
[4] = target: T1, human GPC3 (Glypican-3); experiment: FACS on HepG2 cells
[5] = target: T1, human GPC3 (Glypican-3); experiment: cell-based or functional assay; remark: listed apart in the source
[6] = target: T1, human GPC3 (Glypican-3); experiment: FACS on Huh-7 cells
[7] = target: T1, human GPC3 (Glypican-3); experiment: cell-based or functional assay; remark: listed apart in the source

T1 sequence (P51654 25-580, form in doubt): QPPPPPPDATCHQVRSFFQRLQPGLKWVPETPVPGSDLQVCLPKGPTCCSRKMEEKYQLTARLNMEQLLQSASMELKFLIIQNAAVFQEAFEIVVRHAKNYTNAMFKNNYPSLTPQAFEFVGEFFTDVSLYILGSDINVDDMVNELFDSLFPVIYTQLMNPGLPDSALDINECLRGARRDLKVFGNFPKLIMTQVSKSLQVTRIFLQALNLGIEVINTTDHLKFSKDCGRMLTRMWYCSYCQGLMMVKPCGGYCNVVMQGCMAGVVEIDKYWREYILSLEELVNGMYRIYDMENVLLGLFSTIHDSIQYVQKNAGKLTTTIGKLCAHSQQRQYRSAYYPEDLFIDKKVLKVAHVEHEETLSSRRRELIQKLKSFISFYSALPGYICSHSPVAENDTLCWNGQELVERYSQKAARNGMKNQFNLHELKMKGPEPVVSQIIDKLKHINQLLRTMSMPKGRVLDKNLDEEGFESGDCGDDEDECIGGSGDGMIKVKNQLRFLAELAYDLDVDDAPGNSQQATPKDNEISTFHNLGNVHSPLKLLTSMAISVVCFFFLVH

| Binder | EC50 [1] [pM] | EC50 [2] [µg/mL] | Percentage reduction of GPC3 on cell surface (%), Huh7 cells, 0.5 h [3] [%] | Percentage reduction of GPC3 on cell surface (%), Huh7 cells, 1 h [3] [%] | Percentage reduction of GPC3 on cell surface (%), Huh7 cells, 2 h [3] [%] | EC50 [4] [pM] | Endocytosis on HepG2 cells, EC50 (pHAb dye-labelled secondary antibody) [5] [µg/mL] | Endocytosis on HepG2 cells, Top [5] | EC50 [6] [pM] | EC50 value of cell killing activity in Huh7 cells [7] [µg/mL] |
| --- | --- | --- | --- | --- | --- | --- | --- | --- | --- | --- |
| Hu 52H5D3B8-8 (antibody, human IgG1, kappa, V domains shown, also called humanized GPC3 antibody Hu 52H5D3B8-8; GPC3 antibody) VH: EVQLVQSGAEVKKPGASVKVSCKASGYTFTDYEMHWVRQAPGQGLEWMGAIHPGSGGTAYNQKFKGRVTMTADKSISTAYMELSRLRSDDTAVYYCTRFYSYAYWGQGTLVTVSS VL: DVVMTQTPLSLSVTPGQPASISCRSSQSLVHSNGNTYLQWYLQKPGQSPQLLIYKVSNRFSGVPDRFSGSGSGTDFTLKISRVEAEDVGVYFCSQSIHVPYTFGGGTKVEIKR | 411 | 0.0569 | 18.6 | 37.1 | 52.8 | 351 | 0.78 | 62400 | 418 | – |
| Hu 52H5D3B8-7 (antibody, human IgG1, kappa, V domains shown, also called humanized GPC3 antibody Hu 52H5D3B8-7) VH: EVQLVQSGAEVKKPGASVKVSCKASGYTFTDYEMHWVRQAPGQGLEWMGAIHPGSGGTAYNQKFKGRVTMTADKSISTAYMELSRLRSDDTAVYYCTRFYSYAYWGQGTLVTVSS VL: DVVMTQTPLSLSVTPGQPASISCRSSQSLVHSNGNTYLQWYLQKPGQSPQLLIYKVSNRFSGVPDRFSGSGSGTDFTLKISRVEAEDVGVYYCSQSIHVPYTFGGGTKVEIKR | 446 | – | – | – | – | 405 | 0.72 | 58600 | 464 | – |
| Y035 CDRs with Hu 52H5D3B8-7 FRs (antibody, V domains shown, detected with anti-human IgG) VH: EVQLVQSGAEVKKPGASVKVSCKASGYTFTDYEMHWVRQAPGQGLEWMGAIHPGSGDTAYNQRFKGRVTMTADKSISTAYMELSRLRSDDTAVYYCTRFYSYAYWGQGTLVTVSS VL: DVVMTQTPLSLSVTPGQPASISCRSSQSLVHSNGNTYLQWYLQKPGQSPQLLIYKVSNRFSGVPDRFSGSGSGTDFTLKISRVEAEDVGVYYCSQSIYVPYTFGGGTKVEIK | 907 | – | – | – | – | 611 | 1.11 | 52200 | 667 | – |
| Hu 52H5D3B8-8-mc-AAN-Exatecan (ADC-1) (antibody, human IgG1, kappa, DAR 8.0, V domains shown, mc-AAN-Exatecan on cysteine thiols freed by reduction of interchain disulfide bonds; DAR 8.0 for the whole antibody; positions not given, also called Hu 52H5D3B8-8-MC-AAN-Exa (ADC-1)) VH: EVQLVQSGAEVKKPGASVKVSCKASGYTFTDYEMHWVRQAPGQGLEWMGAIHPGSGGTAYNQKFKGRVTMTADKSISTAYMELSRLRSDDTAVYYCTRFYSYAYWGQGTLVTVSS VL: DVVMTQTPLSLSVTPGQPASISCRSSQSLVHSNGNTYLQWYLQKPGQSPQLLIYKVSNRFSGVPDRFSGSGSGTDFTLKISRVEAEDVGVYFCSQSIHVPYTFGGGTKVEIKR | – | 0.0673 | 17.9 | 32.9 | 52.2 | – | – | – | – | 0.00359 |
| Hu 52H5D3B8-8-mcc-AAN-Exatecan (ADC-2) (antibody, human IgG1, kappa, DAR 8.0, V domains shown, mcc-AAN-Exatecan on cysteine thiols freed by reduction of interchain disulfide bonds; DAR 8.0 for the whole antibody; positions not given, also called Hu 52H5D3B8-8-MCC-AAN-Exa (ADC-2)) VH: EVQLVQSGAEVKKPGASVKVSCKASGYTFTDYEMHWVRQAPGQGLEWMGAIHPGSGGTAYNQKFKGRVTMTADKSISTAYMELSRLRSDDTAVYYCTRFYSYAYWGQGTLVTVSS VL: DVVMTQTPLSLSVTPGQPASISCRSSQSLVHSNGNTYLQWYLQKPGQSPQLLIYKVSNRFSGVPDRFSGSGSGTDFTLKISRVEAEDVGVYFCSQSIHVPYTFGGGTKVEIKR | – | 0.061 | 20.5 | 38.2 | 52.2 | – | – | – | – | 0.00939 |
| Hu 52H5D3B8-8-mc-AAQ-Exatecan (ADC-3) (antibody, human IgG1, kappa, DAR 8.0, V domains shown, mc-AAQ-Exatecan on cysteine thiols freed by reduction of interchain disulfide bonds; DAR 8.0 for the whole antibody; positions not given, also called Hu 52H5D3B8-8-MC-AAQ-Exa (ADC-3)) VH: EVQLVQSGAEVKKPGASVKVSCKASGYTFTDYEMHWVRQAPGQGLEWMGAIHPGSGGTAYNQKFKGRVTMTADKSISTAYMELSRLRSDDTAVYYCTRFYSYAYWGQGTLVTVSS VL: DVVMTQTPLSLSVTPGQPASISCRSSQSLVHSNGNTYLQWYLQKPGQSPQLLIYKVSNRFSGVPDRFSGSGSGTDFTLKISRVEAEDVGVYFCSQSIHVPYTFGGGTKVEIKR | – | 0.0633 | 20 | 32.8 | 50.1 | – | – | – | – | 0.0119 |
